Experimental data taken from US20250011447A1 (EXCYTE BIOPHARMA, published 2025).
Numbering of substitutions follows the chain as printed.

B1: B10 parental antibody Fab (Fab, V domains shown)
VH: QVQLQQSGAEVKKPGSSVKVSCKASGGTFSSYAISWVRQAPGQGLEWMGGIIPIFGTANYAQKFQGRVTITADESTSTAYMELSSLRSEDTAVYYCARGWYFDLWGRGTLVTVSS
VL: LPVLTQPPSASGTPGQRVTISCSGSSSNIGGYSVNWYQQFPGTAPKLLIYRNNQRPSGVPDRFSGSKSGASASLAISGLQSEDEADYYCAAWDDSLIGYVFGTGTQLTVL
notes: Variable regions cloned into vector pUFL and secreted as Fab by E. coli BL21(DE3); also called Fab form of B10
B2: B10 scFv-Fc protein (B10 parental antibody) (Fc fusion)
scFv: QVQLQQSGAEVKKPGSSVKVSCKASGGTFSSYAISWVRQAPGQGLEWMGGIIPIFGTANYAQKFQGRVTITADESTSTAYMELSSLRSEDTAVYYCARGWYFDLWGRGTLVTVSSASTGGSSRSSSSGGGGSGGGGLPVLTQPPSASGTPGQRVTISCSGSSSNIGGYSVNWYQQFPGTAPKLLIYRNNQRPSGVPDRFSGSKSGASASLAISGLQSEDEADYYCAAWDDSLIGYVFGTGTQLTVL
notes: scFv gene fused with the Fc gene of human IgG4 (plasmid pFH-B10); also called clone B10; scFv-Fc protein of B10; not shown: Fc of human IgG4 from vector pFH
B3: B10.3 scFv-Fc (Fc fusion)
scFv: B2 scFv with S31K, Y32S, S35Q, I51V, F102L, S163N, L232V, Y235W, V236L
notes: also called mutant B10.3; not shown: Fc (scFv-Fc)
B4: B10.4 scFv-Fc (Fc fusion)
scFv: QVQLQQSGAEVKKPGSSVKVSCKASGGTFSKSAIMWVRQAPGQGLEWMGGVIPIFGTANYAQKFQGRVTITADESTSTAYMELSSLRSEDTAVYYCARGWYLDLWGRGTLVTVSSASTGGSSRSSSSGGGGSGGGGLPVLTQPPSASGTPGQRVTISCSGSSNNIGGYSVNWYQQFPGTAPKLLIYRNNQRPSGVPDRFSGSKSGASFSLAISGLQFEDEADYYCARWDDSVIGWVLGTGTQLTVL
notes: also called mutant B10.4; not shown: Fc (scFv-Fc)
B5: B10.5 scFv-Fc (Fc fusion)
scFv: B2 scFv with S31K, Y32S, S35H, I51V, F102L, E220V
notes: also called mutant B10.5; not shown: Fc (scFv-Fc)
B6: B10.9 scFv-Fc (Fc fusion)
scFv: B4 scFv with M35Q, F208A, F217S, R227A, V232E, V236L, L237F
notes: also called mutant B10.9; not shown: Fc (scFv-Fc)

What follows are binders tested against T1, BCMA-Fc fusion protein (Acrobiosystems, catalog number BC7-H5254) (human, UniProt Q02223 1-54, biotin cross-linked, 3 to 5 biotin molecules per molecule, where the biotinylated antigen is used (ELISA of Table 3); sites not stated) (assay: ELISA, BCMA-Fc coated at 0.25 µg/ml, Fab from E. coli, HRP anti-human Fab).
T1 construct: Bought protein; also called BCMA antigen; BCMA-Fc antigen; not shown: human Fc of the bought fusion protein
T1 sequence (looked up): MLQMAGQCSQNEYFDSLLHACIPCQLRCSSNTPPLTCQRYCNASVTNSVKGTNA
Experimental: The conditions of the enzyme-linked reaction were optimized through preliminary experiments, to allow the A450 absorption value of the binding of B10 parental antibody Fab to the antigen BCMA-Fc 3 times higher than the background signal. The BCMA-Fc antigen was coated at 0.25 μg/ml on the enzyme-linked plate one day in advance, and the secreted and expressed mutant Fab was added to the wells on the following day, with HRP-conjugated anti-human Fab as the second antibody, the substrate was colored, and A450 was read, to obtain clones corresponding to the wells with signals 1.5 times higher than the maximum value of the parental wells, and these clones were called hits. All hits of the light and heavy chain variable regions were collected, inducted to express and tested by ELISA to verify their affinity higher than the parental antibody. Sequence analysis of mutant regions of the plasmid of the re-positive clone was performed, to obtain the mutation information of CDR amino acids. The process was called primary screening. All mutation information in the CDR region that was beneficial to the improvement of affinity was obtained: mutation sites that improved affinity in the heavy chain variable region CDR are shown in Table 1, and those in the light chain variable region CDR are shown in Table 2.
B1: binds.

The binders below were run against T2, human BCMA on the cell membrane surface (H929 and RPMI8226 cells) (human, UniProt Q02223 1-184) (assay: flow cytometry on RPMI8226 cells (as the text tells it; the table gives this value to J6); flow cytometry on RPMI8226 cells; value as the text of paragraph 107 assigns it).
T2 construct: whole, on cells; also called BCMA antigen on the cell membrane surface; BCMA-expressing cell line H929
T2 sequence (looked up): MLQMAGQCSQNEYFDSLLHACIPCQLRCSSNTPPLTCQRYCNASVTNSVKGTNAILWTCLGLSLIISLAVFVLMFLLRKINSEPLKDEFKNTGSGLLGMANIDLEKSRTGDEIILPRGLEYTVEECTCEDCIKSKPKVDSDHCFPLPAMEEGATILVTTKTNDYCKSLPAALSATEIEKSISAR
Binder B2 has an EC50 of 2.74 µg/mL.

These binders were tested against T2, human BCMA on the cell membrane surface … (assay: flow cytometry on RPMI8226 cells).
Description: (§1) In order to understand the apparent affinity of these antibodies to BCMA on the cell surface, the binding of B10 parental antibody and the finally obtained 4 mutants to BCMA-expressing cell line RPMI8226 were compared with J6 by flow cytometry (see Graph B of FIG. 4, Table 4).
B3 showed an EC50 of 0.0282 µg/mL.
For B4, the EC50 was 0.0343 µg/mL.
In the case of B5, the EC50 is reported as 0.0406 µg/mL.
B6 gave an EC50 of 0.0451 µg/mL.

What follows are binders tested against T2, human BCMA on the cell membrane surface … (assay: flow cytometry on RPMI8226 cells, EC50 ratio (as the table labels it)).
B2 was tested, and the “Fold increase relative to J6” value was 0.57 fold.

What follows are binders tested against T2, human BCMA on the cell membrane surface … (assay: flow cytometry on RPMI8226 cells, scFv-Fc).
Work on B2 yielded a percentage of binding of 5.54%.
B3 showed a percentage of binding of 54.9%.
B4 gave a percentage of binding of 57.5%.
With B5 the percentage of binding was 58.2%.
Binder B6 has a percentage of binding of 42.9%.

What follows are binders tested against T2, human BCMA on the cell membrane surface … (assay: flow cytometry on H929 cells, scFv-Fc).
B2 was tested, and the percentage of binding was 75.3%.
With B3 the percentage of binding was 98%.
In the case of B4, the percentage of binding is reported as 97.9%.
Work on B5 yielded a percentage of binding of 97.2%.
B6 showed a percentage of binding of 91.6%.

The binders below were run against T1, BCMA-Fc fusion protein (Acrobiosystems, …) (assay: ELISA EC50 relative to J6).
Experimental: (§2) After antibodies with different concentrations were coated on enzyme-linked plates, the biotinylated BCMA antigen, streptavidin-conjugated horseradish peroxidase (HRP) and chromogenic substrate were added step by step. The obtained signal-antibody gradient curve is shown in Graph A of FIG. 4, and the relative affinity change fold is shown in Table 3.
In the case of B3, the “Fold of J6” value is reported as 1.29 fold.
For B4, the “Fold of J6” value was 1.55 fold.
B5 was tested, and the “Fold of J6” value was 1.35 fold.
B6 was tested, and the “Fold of J6” value was 1.43 fold.

Each binder was assayed against T2, human BCMA on the cell membrane surface … (assay: flow cytometry on RPMI8226 cells (as the table labels it; the text gives this value to J6)).
Work on B2 yielded an EC50 of 1.57 µg/mL.

The binders below were run against T2, human BCMA on the cell membrane surface … (assay: flow cytometry on RPMI8226 cells, EC50 ratio).
Description: as §1
For B3, the “Fold increase relative to J6” value was 97.1 fold.
B4 was tested, and the “Fold increase relative to J6” value was 79.9 fold.
In the case of B5, the “Fold increase relative to J6” value is reported as 67.5 fold.
B6 was tested, and the “Fold increase relative to J6” value was 60.7 fold.

The binders below were run against T1, BCMA-Fc fusion protein (Acrobiosystems, …) (assay: affinity worked out from the ELISA EC50 fold against J6 (taken as about 0.2 nM)).
Experimental: as §2
For B3, the Kd was 260 pM.
B4 showed a Kd of 310 pM.
With B5 the Kd was 270 pM.
B6 showed a Kd of 290 pM.
